± gives the standard deviation of the averaged measurements.
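Also: ATP exposure 15 min at 22 °C before imaging.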

This series concerns ATP. The series is described as follows: switch fluorescence ratio, 500 uM ATP over buffer (Cy3 cluster intensity, sum of 5 cycles each) (fold (ratio)); higher = stronger signal-on switching upon ATP binding; sequences stand for … in TCGTCGGCAGCGTCAGATGTGTATAAGAGACAGTTTTTTTTTTTTTTTTTTTTTTTTT…TC. The conditions noted are these: aptamer strand: ATP DNA aptamer (quencher-CACCTGGGGGAGTATTGCGGAGGAAGG + anchor), 100 nM annealed; ATP concentration: 500 uM. Put shortly: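 After annealing to 100 nM quencher-labelled ATP aptamer, Cy3-labelled switching-strand clusters on a modified Illumina MiSeq flow-cell were imaged in selection buffer. A second image followed after 15 min with 500 uM ATP at 22 °C, and five such buffer/ATP cycles were done, each separated by NaOH stripping and re-annealing. The fluorescence ratio, averaged per switch-domain sequence, is summed target-cycle over summed buffer-cycle Cy3 intensity per cluster, with clusters outside 100-1000 RFU excluded.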
In the case of TAAAATTTAT, the switch fluorescence ratio worked out at 0.994 ± 0.028.

As to TGGGGTACCT, the switch fluorescence ratio came out at 1.08 ± 0.077.

Turning to TTTGGATGTT, the switch fluorescence ratio was 1 ± 0.011.

As for GGTACTCGTT, the switch fluorescence ratio worked out at 0.991 ± 0.016.

As to CAGAACTCTT, the switch fluorescence ratio is 0.963 ± 0.034.

For the sequence TCGCTCGCAT, the switch fluorescence ratio is 3.68 ± 0.73.

As to TGGGATGGGG, the switch fluorescence ratio was found to be 1.01 ± 0.037.

AAAAGAGTGT: the switch fluorescence ratio worked out at 1.01 ± 0.023.

For the sequence GCTGTAGGAT, the switch fluorescence ratio came out at 0.984 ± 0.017.

Turning to CTGACCTGTA, the switch fluorescence ratio came out at 1.093 ± 0.0021.

Consider TGTGAAAGAC, for which the switch fluorescence ratio was 1.044 ± 0.003.

With TGTTAGCCTT, the switch fluorescence ratio is 1.04 ± 0.017.

Consider CAGGTTGGGT, for which the switch fluorescence ratio was 1.001 ± 0.0086.

As for AGCTAACGAC, the switch fluorescence ratio was found to be 1.83 ± 0.067.

On to AGCAGGATGC, for which the switch fluorescence ratio turned out to be 0.987 ± 0.013.

Consider GCGAGGGGGA, for which the switch fluorescence ratio was determined as 0.984 ± 0.046.

With GTCATTGTAT, the switch fluorescence ratio is 0.966 ± 0.028.

As to TAGGGTTTTG, the switch fluorescence ratio was 1.01 ± 0.042.

Take ACGTACATGT: the switch fluorescence ratio was determined as 1.44 ± 0.018.

For GGGTTTGGGA, the switch fluorescence ratio stood at 0.9899 ± 0.0088.

On to TCGTGCTGCG, for which the switch fluorescence ratio came to 1.0004 ± 0.00051.

As for CGTACAGGGG, the switch fluorescence ratio came out at 1.207 ± 0.004.

In the case of TAGGCGGGGG, the switch fluorescence ratio was 1 ± 0.02.

In the case of CGGGCGTGCC, the switch fluorescence ratio amounted to 0.966 ± 0.014.

As for GATCTGGGTT, the switch fluorescence ratio was found to be 0.994 ± 0.031.

For GGGTTAGGTA, the switch fluorescence ratio was 0.96 ± 0.053.

As to GCATCATTTA, the switch fluorescence ratio came to 1.009 ± 0.0059.

Consider ACTGAGTTTA, for which the switch fluorescence ratio turned out to be 1.02 ± 0.019.

In the case of TTTTAAACAG, the switch fluorescence ratio came out at 1.028 ± 0.0066.

For AGGGGGTAGT, the switch fluorescence ratio stood at 0.983 ± 0.011.

TTTGCTAAA: the switch fluorescence ratio is 1.01 ± 0.046.

As for AATAAAAATG, the switch fluorescence ratio worked out at 1.02 ± 0.027.

As to GAATGAGAGA, the switch fluorescence ratio came out at 1 ± 0.037.

For the sequence TATTAGTGAT, the switch fluorescence ratio was 0.9869 ± 0.0055.

Regarding AAAATGTGTT, the switch fluorescence ratio was determined as 1.01 ± 0.018.

Regarding CAGAATGTGG, the switch fluorescence ratio was 0.996 ± 0.068.

Consider GGTTAGTGTG, for which the switch fluorescence ratio was 0.997 ± 0.015.

For TGGAGGGTCG, the switch fluorescence ratio turned out to be 1.021 ± 0.0023.

On to TGGGGGACGT, for which the switch fluorescence ratio turned out to be 0.999 ± 0.045.

With ATTAGGGTTG, the switch fluorescence ratio is 0.9823 ± 0.0019.

Take AGGATTAAGG: the switch fluorescence ratio stood at 0.992 ± 0.018.

GTTAGAGAGG: the switch fluorescence ratio is 0.9779 ± 0.0078.

Turning to ATGCCTGATA, the switch fluorescence ratio is 0.963 ± 0.029.

Turning to TCGGGGCCAA, the switch fluorescence ratio came to 0.991 ± 0.019.

In the case of AATAGAACTT, the switch fluorescence ratio was determined as 1.02 ± 0.061.

On to GAATATTTAA, for which the switch fluorescence ratio amounted to 0.998 ± 0.014.

As to TTCGTTAAGA, the switch fluorescence ratio was 0.992 ± 0.0094.

Turning to GGAGGGTTTT, the switch fluorescence ratio is 1.01 ± 0.035.

On to TCGAAGTAGG, for which the switch fluorescence ratio came out at 1.46 ± 0.71.

Take GATAGTTTAC: the switch fluorescence ratio is 1.01 ± 0.044.

Consider AGTATAGTGG, for which the switch fluorescence ratio came out at 1.03 ± 0.022.

TCGGCAGGGG: the switch fluorescence ratio turned out to be 1.09 ± 0.035.

Consider GTCGGCGGGG, for which the switch fluorescence ratio came to 0.98048 ± 0.0006.

For GGGTGAGCTT, the switch fluorescence ratio is 1.01 ± 0.029.

For TATATGATTA, the switch fluorescence ratio was found to be 0.973 ± 0.016.

Regarding AAGGGCTTTA, the switch fluorescence ratio amounted to 1.01 ± 0.023.

In the case of GGAGTTAATT, the switch fluorescence ratio worked out at 1.02 ± 0.013.

Turning to ACTTATGGGA, the switch fluorescence ratio stood at 1.02 ± 0.019.

For CGTGCGAAGG, the switch fluorescence ratio worked out at 1.03 ± 0.049.

CACGGTATTT: the switch fluorescence ratio was found to be 1.19 ± 0.067.

Consider TAAAAGGACC, for which the switch fluorescence ratio is 1.09 ± 0.023.

With TTGTGCCGGT, the switch fluorescence ratio came out at 0.988 ± 0.037.

With GCTTAGTGTC, the switch fluorescence ratio was determined as 0.975 ± 0.043.

On to CGCGTTCGGA, for which the switch fluorescence ratio came to 1.04 ± 0.015.

With CCGTGGTAGG, the switch fluorescence ratio turned out to be 1.01 ± 0.018.

Take CGGACTCATT: the switch fluorescence ratio was determined as 1.09 ± 0.15.

Take CCACGCCAGG: the switch fluorescence ratio came to 2.79 ± 0.084.

As to AGAGGTTGCA, the switch fluorescence ratio was 0.994 ± 0.032.

In the case of ATAGAATGTG, the switch fluorescence ratio stood at 1.007 ± 0.0082.

For CTCCTTTTTC, the switch fluorescence ratio came out at 0.976 ± 0.057.

As to TGAGTGCTCT, the switch fluorescence ratio is 0.9733 ± 0.0062.

With TCGCGGAATT, the switch fluorescence ratio came to 1.01 ± 0.066.

AAGTACGCGG: the switch fluorescence ratio was 1.01 ± 0.046.

Consider TATCCAAGTT, for which the switch fluorescence ratio amounted to 0.999 ± 0.013.

As to TGCCGTTTTC, the switch fluorescence ratio is 1.04 ± 0.011.

With GGGAGTTGCT, the switch fluorescence ratio turned out to be 0.986 ± 0.039.

On to TTTTTCCGAG, for which the switch fluorescence ratio is 1.08 ± 0.025.

Take TAGTATGTGG: the switch fluorescence ratio came out at 0.9612 ± 0.0025.

Values taken from the supplement of paper PMC10126150.
